Assay results as given in patent US20120087858A1 (AbbVie / Abbott, published 2012).

B1: DVD1495 (bispecific antibody, human IgG1, kappa)
heavy: not shown
light: DIVMTQSHKFMSTTVGDRVSITCKASQAVSSAVAWYQQKPGQSPKLLIYWASTRHTGVPDRFTGSGSVTDFTLTIHNLQAEDLALYYCQQHYSTPFTFGSGTKLEIKRTVAAPDVQMIQSPSSLSASLGDIVTMTCQASQGTSINLNWFQQKPGKAPKLLIYGSSNLEDGVPSRFSGSRYGTDFTLTISSLEDEDLATYFCLQHSYLPYTFGGGTKLEIKRTVAAPSVFIFPPSDEQLKSGTASVVCLLNNFYPREAKVQWKVDNALQSGNSQESVTEQDSKDSTYSLSSTLTLSKADYEKHKVYACEVTHQGLSSPVTKSFNRGEC
notes: DVD-Ig; linker set 3; also called DVD1495H; DVD1495L
B2: AB020 (antibody, V domains shown)
VH: QVQLQESGPGLVKPSETLSLTCTVSGFSLIGYDLNWIRQPPGKGLEWIGIIWGDGTTDYNSAVKSRVTISKDTSKNQFSLKLSSVTAADTAVYYCARGGYWYATSYYFDYWGQGTLVTVSS
VL: DIQMTQSPSSLSASVGDRVTITCRASQSISNNLNWYQQKPGKAPKLLIYYTSRFHSGVPSRFSGSGSGTDFTFTISSLQPEDIATYYCQQEHTLPYTFGQGTKLEIKR
notes: Parent antibody; also called NGF parent antibody
B3: DVD1502 (bispecific antibody, human IgG1, kappa)
heavy: not shown
light: DIQMTQSPSSLSASVGDRVTITCRASQSISNNLNWYQQKPGKAPKLLIYYTSRFHSGVPSRFSGSGSGTDFTFTISSLQPEDIATYYCQQEHTLPYTFGQGTKLEIKRTVAAPDIVMTQSHKFMSTTVGDRVSITCKASQAVSSAVAWYQQKPGQSPKLLIYWASTRHTGVPDRFTGSGSVTDFTLTIHNLQAEDLALYYCQQHYSTPFTFGSGTKLEIKRTVAAPSVFIFPPSDEQLKSGTASVVCLLNNFYPREAKVQWKVDNALQSGNSQESVTEQDSKDSTYSLSSTLTLSKADYEKHKVYACEVTHQGLSSPVTKSFNRGEC
notes: DVD-Ig; linker set 3; also called DVD1502H; DVD1502L
B4: DVD1460 (bispecific antibody, human IgG1, kappa)
heavy: not shown
light: DIQMTQSPSSLSASVGDRVTITCRASQSISNNLNWYQQKPGKAPKLLIYYTSRFHSGVPSRFSGSGSGTDFTFTISSLQPEDIATYYCQQEHTLPYTFGQGTKLEIKRTVAAPSVFIFPPDIVMTQSHKFMSTTVGDRVSITCKASQAVSSAVAWYQQKPGQSPKLLIYWASTRHTGVPDRFTGSGSVTDFTLTIHNLQAEDLALYYCQQHYSTPFTFGSGTKLEIKRTVAAPSVFIFPPSDEQLKSGTASVVCLLNNFYPREAKVQWKVDNALQSGNSQESVTEQDSKDSTYSLSSTLTLSKADYEKHKVYACEVTHQGLSSPVTKSFNRGEC
notes: DVD-Ig; linker set 2; also called DVD1460H; DVD1460L
B5: DVD1483 (bispecific antibody, human IgG1, kappa)
heavy: not shown
light: EIVMTQSPATLSVSPGERATLSCRASQSVSSNLAWYQQKPGQAPRLLIHGASIRATGLPARFSGSGSGTEFTLTISSLQSEDFAVYYCQQYNYWWTFGQGTKVEIKRTVAAPSVFIFPPDVQMIQSPSSLSASLGDIVTMTCQASQGTSINLNWFQQKPGKAPKLLIYGSSNLEDGVPSRFSGSRYGTDFTLTISSLEDEDLATYFCLQHSYLPYTFGGGTKLEIKRTVAAPSVFIFPPSDEQLKSGTASVVCLLNNFYPREAKVQWKVDNALQSGNSQESVTEQDSKDSTYSLSSTLTLSKADYEKHKVYACEVTHQGLSSPVTKSFNRGEC
notes: DVD-Ig; linker set 2; also called DVD1483H; DVD1483L
B6: DVD1454 (bispecific antibody, human IgG1, kappa)
heavy: not shown
light: DVQMIQSPSSLSASLGDIVTMTCQASQGTSINLNWFQQKPGKAPKLLIYGSSNLEDGVPSRFSGSRYGTDFTLTISSLEDEDLATYFCLQHSYLPYTFGGGTKLEIKRTVAAPSVFIFPPDIVMTQSHKFMSTTVGDRVSITCKASQAVSSAVAWYQQKPGQSPKLLIYWASTRHTGVPDRFTGSGSVTDFTLTIHNLQAEDLALYYCQQHYSTPFTFGSGTKLEIKRTVAAPSVFIFPPSDEQLKSGTASVVCLLNNFYPREAKVQWKVDNALQSGNSQESVTEQDSKDSTYSLSSTLTLSKADYEKHKVYACEVTHQGLSSPVTKSFNRGEC
notes: DVD-Ig; linker set 2; also called DVD1454H; DVD1454L
B7: DVD1525 (bispecific antibody, human IgG1, kappa)
heavy: not shown
light: EIVMTQSPATLSVSPGERATLSCRASQSVSSNLAWYQQKPGQAPRLLIHGASIRATGLPARFSGSGSGTEFTLTISSLQSEDFAVYYCQQYNYWWTFGQGTKVEIKRTVAAPDVQMIQSPSSLSASLGDIVTMTCQASQGTSINLNWFQQKPGKAPKLLIYGSSNLEDGVPSRFSGSRYGTDFTLTISSLEDEDLATYFCLQHSYLPYTFGGGTKLEIKRTVAAPSVFIFPPSDEQLKSGTASVVCLLNNFYPREAKVQWKVDNALQSGNSQESVTEQDSKDSTYSLSSTLTLSKADYEKHKVYACEVTHQGLSSPVTKSFNRGEC
notes: DVD-Ig; linker set 3; also called DVD1525H; DVD1525L
B8: DVD1478 (bispecific antibody, human IgG1, kappa)
heavy: not shown
light: DIQMTQSPSSLSASVGDRVTITCRASQSISNNLNWYQQKPGKAPKLLIYYTSRFHSGVPSRFSGSGSGTDFTFTISSLQPEDIATYYCQQEHTLPYTFGQGTKLEIKRTVAAPSVFIFPPDIQMTQSPSSLSASVGDRVTITCRASQGIRIDLGWYQQKPGKAPKRLIYAASTLQSGVPSRFSGSGSGTEFIFTISSLQPEDFASYYCLQHKSYPLTFGGGTKVEIKRTVAAPSVFIFPPSDEQLKSGTASVVCLLNNFYPREAKVQWKVDNALQSGNSQESVTEQDSKDSTYSLSSTLTLSKADYEKHKVYACEVTHQGLSSPVTKSFNRGEC
notes: DVD-Ig; linker set 2; also called DVD1478H; DVD1478L
B9: DVD1517 (bispecific antibody, human IgG1, kappa)
heavy: not shown
light: DIQMTQSPSSLSASVGDRVTITCRASQGIRIDLGWYQQKPGKAPKRLIYAASTLQSGVPSRFSGSGSGTEFIFTISSLQPEDFASYYCLQHKSYPLTFGGGTKVEIKRTVAAPDVQMIQSPSSLSASLGDIVTMTCQASQGTSINLNWFQQKPGKAPKLLIYGSSNLEDGVPSRFSGSRYGTDFTLTISSLEDEDLATYFCLQHSYLPYTFGGGTKLEIKRTVAAPSVFIFPPSDEQLKSGTASVVCLLNNFYPREAKVQWKVDNALQSGNSQESVTEQDSKDSTYSLSSTLTLSKADYEKHKVYACEVTHQGLSSPVTKSFNRGEC
notes: DVD-Ig; linker set 3; also called DVD1517H; DVD1517L
B10: DVD1520 (bispecific antibody, human IgG1, kappa)
heavy: not shown
light: DIQMTQSPSSLSASVGDRVTITCRASQSISNNLNWYQQKPGKAPKLLIYYTSRFHSGVPSRFSGSGSGTDFTFTISSLQPEDIATYYCQQEHTLPYTFGQGTKLEIKRTVAAPDIQMTQSPSSLSASVGDRVTITCRASQGIRIDLGWYQQKPGKAPKRLIYAASTLQSGVPSRFSGSGSGTEFIFTISSLQPEDFASYYCLQHKSYPLTFGGGTKVEIKRTVAAPSVFIFPPSDEQLKSGTASVVCLLNNFYPREAKVQWKVDNALQSGNSQESVTEQDSKDSTYSLSSTLTLSKADYEKHKVYACEVTHQGLSSPVTKSFNRGEC
notes: DVD-Ig; linker set 3; also called DVD1520H; DVD1520L

Columns and labels:
[1] = biological target: T1, Recombinant Human TNF-α/TNFSF1A (human, UniProt P01375 77-233); test: Biacore SPR
T1 construct: Bought reagent; The same protein name (huTNFα) is used in the L929 neutralization assay; also called huTNFα
Experimental: (§1) The BIACORE assay (Biacore, Inc, Piscataway, N.J.) determines the affinity of antibodies or DVD-Ig with kinetic measurements of on-rate and off-rate constants. Binding of antibodies or DVD-Ig to a target antigen (for example, a purified recombinant target antigen) is determined by surface plasmon resonance-based measurements with a Biacore® 1000 or 3000 instrument (Biacore® AB, Uppsala, Sweden) using running HBS-EP (10 mM HEPES [pH 7.4], 150 mM NaCl, 3 mM EDTA, and 0.005% surfactant P20) at 25° C. All chemicals are obtained from Biacore® AB (Uppsala, Sweden) or otherwise from a different source as described in the text. For example, approximately 5000 RU of goat anti-mouse IgG, (Fcγ), fragment specific polyclonal antibody (Pierce Biotechnology Inc, Rockford, Ill.) diluted in 10 mM sodium acetate (pH 4.5) is directly immobilized across a CMS research grade biosensor chip using a standard amine coupling kit according to manufacturer's instructions and procedures at 25 μg/ml. Unreacted moieties on the biosensor surface are blocked with ethanolamine. Modified carboxymethyl dextran surface in flowcell 2 and 4 is used as a reaction surface. Unmodified carboxymethyl dextran without goat anti-mouse IgG in flow cell 1 and 3 is used as the reference surface. For kinetic analysis, rate equations derived from the 1:1 Langmuir binding model are fitted simultaneously to association and dissociation phases of all eight injections (using global fit analysis) with the use of Biaevaluation 4.0.1 software. Purified antibodies or DVD-Ig are diluted in HEPES-buffered saline for capture across goat anti-mouse IgG specific reaction surfaces. Antibodies or DVD-Ig to be captured as a ligand (25 μg/ml) are injected over reaction matrices at a flow rate of 5 μl/min. The association and dissociation rate constants, kₒₙ (M⁻¹s⁻) and koff(s⁻¹) are determined under a continuous flow rate of 25 μl/min. Rate constants are derived by making kinetic binding measurements at different antigen concentrations ranging from 10-200 nM. The equilibrium dissociation constant (M) of the reaction between antibodies or DVD-Igs and the target antigen is then calculated from the kinetic rate constants by the following formula: KD=koff/kₒₙ. Binding is recorded as a function of time and kinetic rate constants are calculated.

Recombinant Human SOST = biological target: T2, Recombinant Human SOST (human, UniProt Q9BQB4 24-213); test: Biacore SPR
T2 construct: Biacore reagent from R&D Systems; the Wnt-1/luciferase assay used Human Sclerostin (Abbott PR-1261069); also called Sclerostin; Human Sclerostin
T2 sequence (looked up): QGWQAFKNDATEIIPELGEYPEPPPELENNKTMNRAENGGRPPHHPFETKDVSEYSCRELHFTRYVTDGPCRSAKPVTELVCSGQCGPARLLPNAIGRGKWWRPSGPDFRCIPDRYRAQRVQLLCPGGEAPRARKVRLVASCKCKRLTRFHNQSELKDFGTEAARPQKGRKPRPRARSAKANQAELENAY
Experimental: as §1

[2] = biological target: T1, Recombinant Human TNF-α/TNFSF1A; test: cell-based or functional assay
Recombinant Human β-NGF [3] = biological target: T3, Recombinant Human β-NGF (human, UniProt P01138 122-241); test: Biacore SPR
T3 construct: Bought reagent; also called huNGF
Experimental: as §1

Recombinant Human β-NGF [4] = biological target: T3, Recombinant Human β-NGF; test: cell-based or functional assay

T3 sequence (P01138 122-241 limits assumed): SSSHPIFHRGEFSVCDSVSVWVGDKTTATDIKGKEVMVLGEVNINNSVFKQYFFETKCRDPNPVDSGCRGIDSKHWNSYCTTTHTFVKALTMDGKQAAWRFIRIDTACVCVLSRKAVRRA
T1 sequence (P01375 77-233 limits assumed): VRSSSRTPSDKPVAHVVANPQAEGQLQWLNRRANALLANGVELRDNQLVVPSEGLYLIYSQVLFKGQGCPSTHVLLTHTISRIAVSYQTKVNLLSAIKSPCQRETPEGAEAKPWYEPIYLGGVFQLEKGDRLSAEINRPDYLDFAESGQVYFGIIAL

Binder | Kd [1] [nM] | koff [1] [s⁻¹] | kon [1] [M⁻¹ s⁻¹] | Kd (Recombinant Human SOST) [nM] | koff (Recombinant Human SOST) [s⁻¹] | kon (Recombinant Human SOST) [M⁻¹ s⁻¹] | TNFα Neutralization Assay EC50 (L929 cells) [2] [nM] | Kd (Recombinant Human β-NGF [3]) [nM] | koff (Recombinant Human β-NGF [3]) [s⁻¹] | kon (Recombinant Human β-NGF [3]) [M⁻¹ s⁻¹] | NGF Inhibition Assay EC50 (TF-1 cell proliferation) (Recombinant Human β-NGF [4]) [nM]
B1 | 0.021 | 5.4e-05 | 2.5e+06 | 22 | 0.00095 | 44000 | 0.0038 |  |  |  | 
B2 |  |  |  |  |  |  |  | 0.00673 | 4.08e-06 | 606000 | 0.003
B3 | 0.3 | 5.5e-05 | 180000 |  |  |  | 0.46 | < 0.0004 | < 1e-06 | 2.5e+06 | 0.028
B4 | 0.26 | 3.6e-05 | 140000 |  |  |  |  | 0.00085 | 2e-06 | 2.3e+06 | 1.7
B5 | 0.012 | 3.3e-05 | 2.8e+06 | 0.78 | 0.00083 | 1.1e+06 | 0.012 |  |  |  | 
B6 | 0.21 | 4.9e-05 | 230000 | 0.084 | 0.00086 | 1e+07 | 0.951 |  |  |  | 
B7 | 0.015 | 3e-05 | 2e+06 | 9.8 | 0.00089 | 91000 | 0.0029 |  |  |  | 
B8 | 0.1 | 1.5e-05 | 150000 |  |  |  | 0.329 | 0.0025 | 6e-06 | 2.4e+06 | 0.019
B9 | 0.018 | 4.7e-05 | 2.6e+06 | 5.5 | 0.0005 | 89000 | 0.0012 |  |  |  | 
B10 | 0.0038 | 4.4e-06 | 1.1e+06 |  |  |  | 7.21 | 0.0034 | 9.3e-06 | 2.7e+06 | 0.025
